± gives the uncertainty stated by the source.

The values that follow come from the supplement of paper PMC7877785.

A short description of the data set: self-splicing fitness, log relative to wild type (ln ratio); higher = more splicing; Tetrahymena group I intron in knt gene, E. coli kanamycin selection, DiMSum; sequences stand for … in CUCUCU…GGAGGGAAAAGUUAUCAGGCAUGCACCUGGUAGCUAGUCUUUAAACCAAUAGAUUGCAUCGGUUUAAAAGGCAAGACCGUCAAAUUGCGGGAAAGGGGUCAACAGCCGUUCAGUACCAAGUCUCAGGGGAAACUUUGAGAUGGCCUUGCAAAGGGUAUGGUAAUAAGCUGACGGACAUGGUCCUAACCACGCAGCCAAGUCCUAAGUCAACAGAUCUUCUGUUGAUAUGGAUGCAGUUCACAGACUAAAUGUCGGUCGGGGAAGAUGUAUUCUUCUCAUAAGAUAUAGUCGGACCUCUCCUUAAUGGGAGCUAGCGGAUGAAGUGAUGCAACACUGGAGCCGCUGGGAACUAAUUUGUAUGCGAAAGUAUAUUGAUUAGUUUUGGAGUACUCGUGGUCG
Put shortly:
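Pooled colonies went to amplicon sequencing on an Illumina HiSeq 2500 after six replicate transformations. The plates were LB agar with 100 μg/mL carbenicillin, 50 μM IPTG and 0.2% rhamnose, with or without 25 μg/mL kanamycin, incubated overnight at 37°C or 30°C. The E. coli BL21(DE3) library had all eight P1ex-region intron nucleotides randomised, the intron placed in the knt kanamycin-resistance gene on pET-22b(+). DiMSum fitness is the error-weighted combination of replicate fold changes, kanamycin against none, normalised to wild type.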

As to AUUGAGCAAUAUUACGAACC, the “self-splicing fitness (ln)” value (37 °C) is -2.31 ± 0.46. Consider AUUGAGCAAUAUUACGAGAU, for which the “self-splicing fitness (ln)” value is, setting by setting: (30 °C) -3.73 ± 0.35; (37 °C) -1.11 ± 0.26. Consider AUUGAGCAAUAUUACGAGUC, for which the “self-splicing fitness (ln)” value by setting is: (30 °C) -4.1 ± 0.34; (37 °C) -2.38 ± 0.35. Take AUUGAGCAAUAUUACGCCUU: the “self-splicing fitness (ln)” value is, setting by setting: (30 °C) -2.26 ± 0.39; (37 °C) -1.89 ± 0.3. Turning to AUUGAGCAAUAUUACGCGAC, the “self-splicing fitness (ln)” value is, setting by setting: (30 °C) -3.45 ± 0.3; (37 °C) -1.2 ± 0.24. On to AUUGAGCAAUAUUACGCGCU, for which the “self-splicing fitness (ln)” value (30 °C) was -2.3 ± 0.29 and the “self-splicing fitness (ln)” value (37 °C) is -1.29 ± 0.41. With AUUGAGCAAUAUUACGCGGG, the “self-splicing fitness (ln)” value is -3.34 ± 0.36 (30 °C) and -2.25 ± 0.35 (37 °C). The matching figures for AUUGAGCAAUAUUACGCGUU: -3.02 ± 0.26 and -2.34 ± 0.23. On to AUUGAGCAAUAUUACGGCAA, for which the “self-splicing fitness (ln)” value by setting is: (30 °C) -1.58 ± 0.14; (37 °C) -0.831 ± 0.13. As for AUUGAGCAAUAUUACGGCAU, the “self-splicing fitness (ln)” value runs as follows: (30 °C) -1.17 ± 0.088; (37 °C) -0.323 ± 0.13. In the case of AUUGAGCAAUAUUACGGCUC, for the setting “37 °C”, the “self-splicing fitness (ln)” value is -1.77 ± 0.32. For AUUGAGCAAUAUUACGGGCC, the “self-splicing fitness (ln)” value (30 °C) is -2.96 ± 0.36 and the “self-splicing fitness (ln)” value (37 °C) is -2.05 ± 0.43. In the case of AUUGAGCAAUAUUACGGGUA, under “37 °C”, the “self-splicing fitness (ln)” value was -2.06 ± 0.32. Regarding AUUGAGCAAUAUUACGGGUC, the “self-splicing fitness (ln)” value (30 °C) is -3.34 ± 0.39. In the case of AUUGAGCAAUAUUACGGGUU, the “self-splicing fitness (ln)” value is, setting by setting: (30 °C) -3.92 ± 0.25; (37 °C) -3.31 ± 0.21. With AUUGAGCAAUAUUACGGUAA, the “self-splicing fitness (ln)” value runs as follows: (30 °C) -3.25 ± 0.22; (37 °C) -2.53 ± 0.2. The matching figures for AUUGAGCAAUAUUACGGUGA: -2.89 ± 0.28 and -1.48 ± 0.22. On to AUUGAGCAAUAUUACGUAGA, for which the “self-splicing fitness (ln)” value by setting is: (30 °C) -2.86 ± 0.26; (37 °C) -2.38 ± 0.42. Consider AUUGAGCAAUAUUACGUAGG, for which the “self-splicing fitness (ln)” value by setting is: (30 °C) -3.16 ± 0.37; (37 °C) 0.0777 ± 0.29. On to AUUGAGCAAUAUUACGUCAU, for which the “self-splicing fitness (ln)” value by setting is: (30 °C) -2.76 ± 0.14; (37 °C) -2.12 ± 0.17.

For AUUGAGCAAUAUUACGUCGG, the “self-splicing fitness (ln)” value was -4.24 ± 0.46 (30 °C) and -1.68 ± 0.39 (37 °C). In the same order, the values of AUUGAGCAAUAUUACGUUUU are -3.05 ± 0.17 and -1.38 ± 0.22. In the case of AUUUAGCAAUAUUACGAACA, the “self-splicing fitness (ln)” value runs as follows: (30 °C) -0.709 ± 0.15; (37 °C) -0.537 ± 0.17. For AUUUAGCAAUAUUACGAAUG, the “self-splicing fitness (ln)” value is, setting by setting: (30 °C) -2.39 ± 0.19; (37 °C) -0.72 ± 0.21. Regarding AUUUAGCAAUAUUACGAGGG, the “self-splicing fitness (ln)” value (37 °C) is -1.34 ± 0.28. Consider AUUUAGCAAUAUUACGAUUA, for which the “self-splicing fitness (ln)” value by setting is: (30 °C) -1.4 ± 0.2; (37 °C) -0.561 ± 0.16.

For AUUUAGCAAUAUUACGCAAU, the “self-splicing fitness (ln)” value by setting is: (30 °C) -2.53 ± 0.2; (37 °C) -1.86 ± 0.18. Turning to AUUUAGCAAUAUUACGCAGU, the “self-splicing fitness (ln)” value reads like this: (30 °C) -3 ± 0.28; (37 °C) -2.18 ± 0.26. With AUUUAGCAAUAUUACGCAUG, the “self-splicing fitness (ln)” value (30 °C) is -1.05 ± 0.12 and the “self-splicing fitness (ln)” value (37 °C) is -0.777 ± 0.18. On to AUUUAGCAAUAUUACGCCAU, for which the “self-splicing fitness (ln)” value is, setting by setting: (30 °C) -0.966 ± 0.27; (37 °C) 0.446 ± 0.24. In the case of AUUUAGCAAUAUUACGCCCA, the “self-splicing fitness (ln)” value by setting is: (30 °C) -1.06 ± 0.26; (37 °C) -1.58 ± 0.27. In the case of AUUUAGCAAUAUUACGCGGG, the “self-splicing fitness (ln)” value is, setting by setting: (30 °C) -2.72 ± 0.19; (37 °C) -1.96 ± 0.16. For the sequence AUUUAGCAAUAUUACGCGGU, the “self-splicing fitness (ln)” value runs as follows: (30 °C) -2.13 ± 0.29; (37 °C) -1.87 ± 0.44. Turning to AUUUAGCAAUAUUACGGAGU, the “self-splicing fitness (ln)” value was -2.92 ± 0.27 (30 °C) and -2.29 ± 0.27 (37 °C).

On to AUUUAGCAAUAUUACGGGAU, for which the “self-splicing fitness (ln)” value reads like this: (30 °C) -1.42 ± 0.11; (37 °C) -0.217 ± 0.14. Consider AUUUAGCAAUAUUACGGGCG, for which the “self-splicing fitness (ln)” value is -1.77 ± 0.12 (30 °C) and -0.764 ± 0.12 (37 °C). Regarding AUUUAGCAAUAUUACGUACU, the “self-splicing fitness (ln)” value was -0.21 ± 0.11 (30 °C) and -0.13 ± 0.15 (37 °C).

As for AUUUAGCAAUAUUACGUAGC, the “self-splicing fitness (ln)” value was -3 ± 0.23 (30 °C) and -1.64 ± 0.25 (37 °C). For AUUUAGCAAUAUUACGUAUC, under “37 °C”, the “self-splicing fitness (ln)” value is -2.15 ± 0.32. As to AUUUAGCAAUAUUACGUUUU, the “self-splicing fitness (ln)” value was -3.37 ± 0.24 (30 °C) and -2.25 ± 0.2 (37 °C). Consider CAAAAGCAAUAUUACGACGU, for which the “self-splicing fitness (ln)” value (30 °C) was -0.652 ± 0.066 and the “self-splicing fitness (ln)” value (37 °C) was 0.0132 ± 0.08. CAAAAGCAAUAUUACGAGCU: the “self-splicing fitness (ln)” value is, setting by setting: (30 °C) -3.99 ± 0.21; (37 °C) -1.96 ± 0.13. The matching figures for CAAAAGCAAUAUUACGAGGG: -2.77 ± 0.14 and -2.53 ± 0.21. The matching figures for CAAAAGCAAUAUUACGAGUC: -4.06 ± 0.24 and -2.65 ± 0.25. As to CAAAAGCAAUAUUACGAUGC, the “self-splicing fitness (ln)” value (30 °C) is -3.49 ± 0.19 and the “self-splicing fitness (ln)” value (37 °C) is -2.99 ± 0.32. With CAAAAGCAAUAUUACGCCGU, the “self-splicing fitness (ln)” value by setting is: (30 °C) -2.08 ± 0.16; (37 °C) -1.32 ± 0.18.

CAAAAGCAAUAUUACGCUGU: the “self-splicing fitness (ln)” value was -3.49 ± 0.25 (30 °C) and -1.73 ± 0.18 (37 °C). CAAAAGCAAUAUUACGGAGA: the “self-splicing fitness (ln)” value by setting is: (30 °C) -2.88 ± 0.28; (37 °C) -3.43 ± 0.3. Consider CAAAAGCAAUAUUACGGCGA, for which the “self-splicing fitness (ln)” value runs as follows: (30 °C) -1.16 ± 0.11; (37 °C) -0.502 ± 0.098. For CAAAAGCAAUAUUACGGUUA, the “self-splicing fitness (ln)” value runs as follows: (30 °C) -1.72 ± 0.1; (37 °C) -0.514 ± 0.083. The matching figures for CAAAAGCAAUAUUACGGUUG: -1.66 ± 0.11 and -1.17 ± 0.14.

Consider CAAAAGCAAUAUUACGUAGU, for which the “self-splicing fitness (ln)” value by setting is: (30 °C) -3.12 ± 0.12; (37 °C) -2.76 ± 0.18.

For CAAAAGCAAUAUUACGUAUA, the “self-splicing fitness (ln)” value is, setting by setting: (30 °C) -3 ± 0.15; (37 °C) -2.38 ± 0.17. CAAAAGCAAUAUUACGUCGA: the “self-splicing fitness (ln)” value reads like this: (30 °C) -2.16 ± 0.086; (37 °C) -1.06 ± 0.084. CAAAAGCAAUAUUACGUGCC: the “self-splicing fitness (ln)” value runs as follows: (30 °C) -2.99 ± 0.24; (37 °C) -1.41 ± 0.23. In the same order, the values of CAACAGCAAUAUUACGAAGC are -3.45 ± 0.13 and -2.74 ± 0.15. Regarding CAACAGCAAUAUUACGAAUA, the “self-splicing fitness (ln)” value (30 °C) is -3.74 ± 0.28 and the “self-splicing fitness (ln)” value (37 °C) was -1.83 ± 0.2.

CAACAGCAAUAUUACGACAA: the “self-splicing fitness (ln)” value (30 °C) was -3.37 ± 0.21 and the “self-splicing fitness (ln)” value (37 °C) was -2.29 ± 0.14. Take CAACAGCAAUAUUACGACCC: the “self-splicing fitness (ln)” value is, setting by setting: (30 °C) -1.31 ± 0.13; (37 °C) -2.62 ± 0.33. Regarding CAACAGCAAUAUUACGAGUA, the “self-splicing fitness (ln)” value reads like this: (30 °C) -1.85 ± 0.1; (37 °C) -1.04 ± 0.082. As for CAACAGCAAUAUUACGCAAC, the “self-splicing fitness (ln)” value (30 °C) was -3.4 ± 0.23 and the “self-splicing fitness (ln)” value (37 °C) is -2.53 ± 0.33. In the same order, the values of CAACAGCAAUAUUACGCACG are -0.598 ± 0.067 and 0.246 ± 0.094.
